Laboratory results reported in patent US20230073274A1 (NOVELMED THERAPEUTICS, published 2023).
Read-outs that look alike come from different tables or passages of the source.

Assays:
human properdin [1] = biological target: T1, human properdin (human, UniProt P27918 28-469); test: cell-based or functional assay
human properdin [2] = biological target: T1, human properdin; test: ELISA, human properdin coated on plate
Experimental: (§1) Polystyrene microtiter plates were coated with human (2.0 μg/50 μl per well) properdin in phosphate buffered saline (PBS) overnight at 4° C. After aspirating the properdin solution, the wells were blocked with PBS containing 1% bovine serum albumin (BSA) (Sigma-Aldrich, St. Louis, Mo.) for 2 hours at room temperature. Wells without peptide or properdin coating served as background controls. Aliquots of the test antibody in blocking solution were added to the properdin coated wells and allowed to incubate for 1 hour to allow binding to occur. Following a 1 hour incubation at room temperature, the plate was rinsed with PBS five times and incubated with 1:2000 diluted anti-properdin polyclonal antibody.

human properdin [3] = biological target: T1, human properdin; test: cell-based or functional assay; remark: listed apart in the source
human properdin [4] = biological target: T1, human properdin; test: ELISA, human properdin coated on the plate, OD 450 nm
Experimental: as §1

human properdin [5] = biological target: T1, human properdin; test: cell-based or functional assay; remark: listed apart in the source
human properdin [6] = biological target: T1, human properdin; test: cell-based or functional assay; remark: listed apart in the source
human properdin [7] = biological target: T1, human properdin; test: ELISA, properdin coated on the plate, OD 450 nm
human properdin [8] = biological target: T1, human properdin; test: cell-based or functional assay; remark: listed apart in the source
human properdin [9] = biological target: T1, human properdin; test: cell-based or functional assay; remark: listed apart in the source

T1 sequence (P27918 28-469 limits assumed): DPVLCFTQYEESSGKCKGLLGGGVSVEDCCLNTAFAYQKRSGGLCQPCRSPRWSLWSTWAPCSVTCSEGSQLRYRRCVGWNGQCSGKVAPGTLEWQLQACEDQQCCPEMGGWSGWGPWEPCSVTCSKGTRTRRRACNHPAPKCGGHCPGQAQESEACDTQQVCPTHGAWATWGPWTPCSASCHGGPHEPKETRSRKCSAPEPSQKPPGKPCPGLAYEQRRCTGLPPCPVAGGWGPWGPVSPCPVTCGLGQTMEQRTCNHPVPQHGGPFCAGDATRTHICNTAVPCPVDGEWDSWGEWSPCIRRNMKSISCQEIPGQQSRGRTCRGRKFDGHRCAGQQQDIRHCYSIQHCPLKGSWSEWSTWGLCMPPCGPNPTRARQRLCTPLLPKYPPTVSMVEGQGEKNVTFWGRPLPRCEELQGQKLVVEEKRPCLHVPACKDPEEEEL

| Binding Affinity (human properdin [2]) [pM] | EC50 (read off the curve) (human properdin [4]) [nM] | MAC (µg/Ml); inhibition of MAC formation (human properdin [6]) [µg/mL] | Properdin (µg/mL); inhibition of properdin deposition (human properdin [6]) [µg/mL] | Binder | also measured |
| --- | --- | --- | --- | --- | --- |
|  |  |  |  | NMT30-100 (antibody, V domains shown) VH: EVTLKESGPTLVKPTQTLTLTCTFSGFSLSTSGMGVGWIRQPPGKALEWLAHIWWDDVKSYNPALKSRLTITKDTSKNQVVLTITNVDPVDTATYYCARIGDGYYSFDYWGQGTTLTVSS VL: DIQMTQSPSSLSASVGDRVTITCRASQDVSDAVAWFQQKPGKAPKLLIYSPSYRYTGVPSRFSGSGSGTDFTFTISSLQPEDFATYYCQQHYSTPWTFGQGTKLEIK | IC50 (read off the curve): C3b deposition (sheet title: LPS C3b 10% NHS) (human properdin [1]): ~0.6 µg/mL |
|  |  |  |  | NMT31-101 (antibody, V domains shown) VH: EVTLKESGPTLVKPTQTLTLTCTFSGFSLSTSGMGVGWIRQPPGKALEWLAHIWWDDVKSYNPALKSRLTITKDTSKNQVVLTMTNMDPVDTATYYCARIGDGYYSFDYWGQGTTVTVSS VL: DIQMTQSPSSLSASVGDRVTITCRASQDVSDAVAWFQQKPGKAPKLLIYSPSYRYTGVPSRFSGSGSGTDFTFTISSLQPEDLATYYCQQHYSTPWTFGQGTKLEIK | IC50 (read off the curve): C3b deposition (sheet title: LPS C3b 10% NHS) (human properdin [1]): ~0.5 µg/mL |
|  |  |  |  | NMT31-100 (antibody, V domains shown) VH: EVTLKESGPTLVKPTQTLTLTCTFSGFSLSTSGMGVGWIRQPPGKALEWLAHIWWDDVKSYNPALKSRLTITKDTSKNQVVLTMTNMDPVDTATYYCARIGDGYYSFDYWGQGTTVTVSS VL: DIQMTQSPSSLSASVGDRVTITCRASQDVSDAVAWFQQKPGKAPKLLIYSPSYRYTGVPSRFSGSGSGTDFTFTISSLQPEDLATYYCQQHYSTPWTFGQGTKLEIK | IC50 (read off the curve): C3b deposition (sheet title: LPS C3b 10% NHS) (human properdin [1]): ~0.5 µg/mL |
|  |  |  |  | NMT30-101 (antibody, V domains shown) VH: EVTLKESGPTLVKPTQTLTLTCTFSGFSLSTSGMGVGWIRQPPGKALEWLAHIWWDDVKSYNPALKSRLTITKDTSKNQVVLTITNVDPVDTATYYCARIGDGYYSFDYWGQGTTLTVSS VL: DIQMTQSPSSLSASVGDRVTITCRASQDVSDAVAWFQQKPGKAPKLLIYSPSYRYTGVPSRFSGSGSGTDFTFTISSLQPEDFATYYCQQHYSTPWTFGQGTKLEIK | IC50 (read off the curve): C3b deposition (sheet title: LPS C3b 10% NHS) (human properdin [1]): ~0.6 µg/mL |
| 289 | ~0.3 | 9 | 3 | NMT18 (antibody, V domains shown) VH: EVQLVQSGAEVKKPGASVKVSCKASGYIFTNYPIHWVRQAPGQGLEWMGFIDPGGGYDEPDERFRDRVTMTADTSTSTAYMELSSLRSEDTAVYYCARRGGGYYLDYWGQGTTVTVSS VL: DIQMTQSPSSLSASVGDRVTITCRASQDISFFLNWYQQKPGKAPKLLIYYTSRYHSGVPSRFSGSGSGTDFTLTISSLQPEDFATYYCQHGQTLPWTFGQGTKLEIK | IC50 (read off the curve): C3b deposition (AP activation on LPS, normal human serum) (human properdin [3]): ~0.5 µg/mL; IC50 (read off the curve): properdin deposition (AP activation on LPS, 10% normal human serum) (human properdin [5]): ~0.9 µg/mL |
|  |  |  |  | NMT26 (antibody, V domains shown) VH: EVQLVESGGGLVQPGRSLRLSCAASGYIFTNYPIHWVRQAPGKGLEWVSFIDPGGGHIDYADSVEGRFTISRDNAKNSLYLQMNSLRAEDTAVYYCAKRGGGYYLDYWGQGTLVTVSS VL: DIQMTQSPSSLSASVGDRVTITCRASQDISFFLNWYQQKPGKAPKLLIYYTSRYHSGVPSRFSGSGSGTDFTLTISSLQPEDVATYYCQHGSTLPYTFGQGTKVEIK | binding result (human properdin [7]): no binding (tested: about 13 nM) |
|  |  |  |  | NMT23 (antibody, V domains shown) VH: EVQLVQSGAEVKKPGASVKVSCKASGYIFTNYPIHWVRQAPGKGLEWMGFIDPGGGHDEYADSVKGRVTMTRDTSTSTVYMELSSLRSEDTAVYYCARRGGGYYLDYWGQGTLVTVSS VL: DIQMTQSPSSLSASVGDRVTITCRASQDISFFLNWYQQKPGKAPKLLIYYTSRYHSGVPSRFSGSGSGTDFTLTISSLQPEDFATYYCQHGSTLPWTFGQGTKVEIK | EC50 (read off the curve) (human properdin [7]): ~0.2 nM |
|  |  |  |  | NMT24 (antibody, V domains shown) VH: EVQLVQSGAEVKKPGASVKVSCKASGYIFTNYPIHWVRQAPGKGLEWMGFIDPGGGHDEYADSVKGRVTMTRDTSTSTVYMELSSLRSEDTAVYYCARRGGGYYLDYWGQGTLVTVSS VL: DIQMTQSPSSLSASVGDRVTITCRASQDISFFLNWYQQKPGKAPKLLIYGASSYHSGVPSRFSGSGSGTDFTLTISSLQPEDFATYYCQHGQTLPRTFGQGTKVEIK | binding result (human properdin [7]): no binding (tested: about 13 nM) |
| 353 | 0.3 to 0.4 | 8 | 8 | NMT21 (antibody, V domains shown) VH: EVQLVQSGAEVKKPGASVKVSCKASGYIFTNYPIHWVRQAPGQGLEWMGFIDPGGGYDEYAQKFQGRVTLTADTSTSTAYMELSSLRSEDTAVYYCARRGGGYYLDYWGQGTTLTVSS VL: DIQMTQSPSSLSASVGDRVTITCRASQDISFFLNWYQQKPGKAPKLLIYYTSRYHSGVPSRFSGSGSGTDFTLTISSLQPEDFATYYCQHGQTLPWTFGQGTKLEIK | IC50 (read off the curve): properdin deposition (AP activation on LPS, 10% normal human serum) (human properdin [8]): ~1 µg/mL; IC50 (read off the curve): C3b deposition (AP activation on LPS, normal human serum) (human properdin [3]): ~0.5 µg/mL |
| 283 | ~0.3 | 5 | 4 | NMT17 (antibody, V domains shown) VH: EVQLVQSGAEVKKPGASVKVSCKASGYIFTNYPIHWVRQAPGQGLEWMGFIDPGGGYDEPDERFRDRVTMTADTSTSTAYMELSSLRSEDTAVYYCARRGGGYYLDYWGQGTTVTVSS VL: DIQMTQSPSSLSASVGDRVTITCRASQDISFFLNWYQQKPGKAPKLLIYYTSRYHSGVPSRFSGSGSGTDFTLTISSLQPEDFATYYCQHGSTLPWTFGQGTKLEIK | IC50 (read off the curve): C3b deposition (AP activation on LPS, normal human serum) (human properdin [3]): ~0.7 µg/mL; IC50 (read off the curve): properdin deposition (AP activation on LPS, 10% normal human serum) (human properdin [5]): ~0.9 µg/mL |
| 486 | ~0.5 |  |  | NMT19 (antibody, V domains shown) VH: EVQLVQSGAEVKKPGASVKVSCKASGHIFTNYPIHWVRQAPGQGLEWMGFIDPGGGHDEPDERFRDRVTMTADTSTSTAYMELSSLRSEDTAVYYCARRGGGYYLDYWGQGTTVTVSS VL: DIQMTQSPSSLSASVGDRVTITCRASQDISFFLNWYQQKPGKAPKLLIYYTSRYHSGVPSRFSGSGSGTDFTLTISSLQPEDFATYYCQHGQTLPWTFGQGTKLEIK | IC50 (read off the curve): properdin deposition (AP activation on LPS, 10% normal human serum) (human properdin [8]): ~10 µg/mL |
|  |  |  |  | NMT27 (antibody, V domains shown) VH: EVQLVQSGAEVKKPGASVKVSCKASGYIFTNYPIHWVRQAPGKGLEWMGFIDPGGGYDEPDERFRDRVTMTRDTSTSTVYMELSSLRSEDTAVYYCARRGGGYYLDYWGQGTLVTVSS VL: DIQMTQSPSSLSASVGDRVTITCRASQDISFFLNWYQQKPGKAPKLLIYYTSRYHSGVPSRFSGSGSGTDFTLTISSLQPEDFATYYCQHGSTLPRTFGQGTKVEIK | binding result (human properdin [7]): binds |
| 335 | 0.3 to 0.4 |  |  | NMT22 (antibody, V domains shown) VH: EVQLVQSGAEVKKPGASVKVSCKASGYIFTNYPIHWVRQAPGQGLEWMGFIDPGGGYDESAQKFRGRVTLTADTSTSTVYMELSSLRSEDTAVYYCARRGGGYYLDYWGQGTTLTVSS VL: DIQMTQSPSSLSASVGDRVTITCRASQDISFFLNWYQQKPGKAPKLLIYYTSRYHSGVPSRFSGSGSGTDFTLTISSLQPEDFATYYCQHGSTLPYTFGQGTKLEIK | IC50 (read off the curve): properdin deposition (AP activation on LPS, 10% normal human serum) (human properdin [8]): ~9 µg/mL |
|  |  |  |  | NMT28 (antibody, V domains shown) VH: EVQLVQSGAEVKKPGASVKVSCKASGYIFTNYPIHWVRQAPGQGLEWMGFIDPGGGYDEPDERFRDRVTMTADTSTSTAYMELSSLRSEDTAVYYCARRGGGYYLDYWGQGTLVTVSS VL: DIQMTQSPSSLSASVGDRVTITCRASQDISFFLNWYQQKPGKAPKLLIYYTSRYHSGVPSRFSGSGSGTDFTLTISSLQPEDFATYYCQHGQTLPWTFGQGTKVEIK | EC50 (read off the curve) (human properdin [7]): ~0.06 nM; IC50 (read off the curve): C3b deposition (AP C3 convertase formation assay) (human properdin [9]): ~0.3 µg/mL; IC50 (read off the curve): properdin deposition (AP C3 convertase formation assay) (human properdin [9]): ~0.3 µg/mL |
| 315 | 0.3 to 0.4 | 3 | 4 | NMT16 (antibody, V domains shown) VH: EVQLVQSGAEVKKPGASVKVSCKASGYIFTNYPIHWVRQAPGQGLEWMGFIDPGGGYDEPDERFRDRVTMTADTSTSTAYMELSSLRSEDTAVYYCARRGGGYYLDYWGQGTTVTVSS VL: DIQMTQSPSSLSASVGDRVTITCRASQDISFFLNWYQQKPGKAPKLLIYYTSRYHSGVPSRFSGSGSGTDFTLTISSLQPEDFATYYCQHGNTLPWTFGQGTKLEIK | IC50 (read off the curve): properdin deposition (AP activation on LPS, 10% normal human serum) (human properdin [5]): ~1 µg/mL |
| 297 | ~0.3 | 25 | 30 | NMT20 (antibody, V domains shown) VH: EVQLVQSGAEVKKPGASVKVSCKASGYIFTNYPIHWVRQAPGQGLEWMGFIDPGGGYDEPDERFRDRVTMTADTSTSTAYMELSSLRSEDTAVYYCARRGGGYYLDYWGQGTTVTVSS VL: DIQMTQSPSSLSASVGDRVTITCRASQDISFFLNWYQQKPGKAPKLLIYYTSRYHSGVPSRFSGSGSGTDFTLTISSLQPEDFATYYCQHGSTLPYTFGQGTKLEIK | IC50 (read off the curve): properdin deposition (AP activation on LPS, 10% normal human serum) (human properdin [8]): ~1 µg/mL; IC50 (read off the curve): C3b deposition (AP activation on LPS, normal human serum) (human properdin [3]): ~0.8 µg/mL |
